Six molecules from publication doi:10.1101/2020.05.20.105668 can be followed below.

A value given as a limit tells only on which side of the number the result lay.

One experiment concerns the target s10_(long) H199Y. Kind of experiment: peptide or protein array.
A further experiment has as its target s10_(long) H199Y/L207V. Kind of experiment: peptide or protein array.
Experiment [1] has as its target s10_(long) WT peptide L195[…]212. Kind of experiment: peptide or protein array.
The target of a further experiment is s10_(long) H199Y/T203F. Nature of the experiment: peptide or protein array.
The target in experiment [2] is LOO10-GFP (circularly permuted superfolder GFP with strand 10 removed). Nature of the experiment: other fluorescence titration.
Experiment [3] has the same target. Kind of experiment: fluorescence complementation.
The target is the same in experiment [4]. Nature of the experiment: competition experiment followed by fluorescence.

Turning to “LOO10-GFP (circularly permuted superfolder GFP with strand 10 removed) (domain or fragment)”, the fold microarray fluorescence compared to WT amounted to 10 fold in the experiment with s10_(long) H199Y, 3 fold in the experiment with s10_(long) H199Y/L207V and 54 fold with s10_(long) H199Y/T203F. For the same molecule, the mean microarray fluorescence in experiment [1] came out at 741 FU.

Molecule NYYLSYQTVLS [s10_(short) H199Y/T203Y peptide] returned a fold increase in affinity compared to WT in experiment [2] of 9 fold.

In the case of NHYLSTQTVLS [s10_(short) WT peptide N198…208], the fold increase in 520 nm signal on complementation in experiment [3] was 5 fold.

The molecule NHYLSYQTVLS [s10_(short) T203Y peptide] displayed a fold increase in affinity compared to WT in experiment [2] of 2 fold.

In turn, NYYLSTQTVLS [s10_(short) H199Y peptide] gave a fold increase in affinity compared to WT in experiment [2] of 5 fold.

In turn, LPDNHYLSTQTVRSKDPNE [s10 L207R peptide, long format (free 19-mer)] displayed a fold weaker affinity than WT (approximated) in experiment [4] of over 10 fold.
